In paper PMC11381654 (2020):

Biological target: human IL‐4Rα (human, UniProt P24394 26-232, N‐glycosylation sites (modelled in the crystal structure; positions not given))
Assay: ITC

- Kd: 2.55 nM
B1: dAb1 (VHH)
VHH: QVQLVESGGGLVQPGGSLRLSCAASGDFYCMAWFRQAPGKEREAVAAIRSGGRSTYYADSVKGRFTISRDNSKNTLYLQMNSLKAEDTAVYYCAVGVDGNCRNYWGQGTLVTVSS
